Experimental data reported in patent publication US10995119B2, “Peptide exhibiting hydrolytic activity and use thereof” (Okinawa Institute of Science and Technology School …, priority 2016, dated 2021).
Read-outs that look alike come from different tables or passages of the source.

What was measured:
PrP 175-189 = PrP 175-189 (Homo sapiens, UniProt P04156)
[1] = Autodigestion of the catalytic peptide (HPLC, MS); assay type: biochemical
Method: (§1) First, to a buffer solution (Tris-HCl, pH 6.5, final concentration: 100 mmol/l), JAL (final concentration: 0.2 mmol/l) and the fragment peptide of hMMP7 (final concentration 0.05 mmol/l) were added. […] Thereafter, the reaction solution was subjected to HPLC, and the peaks of JAL and the fragment peptide of hMMP7 were examined. HPLC was performed under the following conditions.
Next, the mechanism of autodigestion was examined using various mutants of JAL as hydrolytic peptides. To a reaction solution containing each of the mutants of JAL, a protease inhibitor (trade name: Roche cOmplete, Roche) was added to cause a reaction. One tablet of the protease inhibitor was dissolved in 1 ml of Milli-Q water, and then, 50 μl of the resultant mixture was added to the reaction solution. […] As a result, the autodigestion of all the peptides subjected to the measurement was inhibited (FIG. 16).
Autodigestion in Box B was examined.
JAL-TA9 was reacted in the same manner except that a substrate was not added to examine the autodigestion of JAL-TA9.
The influence of an inhibitor on autodigestion of JAL-TA9 was examined. […] As the protease inhibitor, the serine protease inhibitor AEBSF, which inhibited the autodigestion of JAL 12-22 C19M in the item (6) in Example 4, was used.

Aβ11-29 = Aβ11-29 (Homo sapiens, UniProt P05067); test: Hydrolysis activity against Aβ11-29
Method: (§6) Further, any change in activity caused by addition of human serum albumin (HSA, Wako Pure Chemical Industries, Ltd., final concentration 0.025%) also was measured.
(§7) As substrates, Aβ42 in the form of soluble powder (authentic sample, Peptide Institute Inc.) and fragment peptides thereof, namely, Aβ1-20, Aβ11-29, and soluble Aβ28-42, were used. […] In the case of MS analysis, the MS analysis was performed after applying 20 μl of the reaction solution to HPLC and collecting an aliquot of the peak.
As a substrate, Aβ11-29, which is a fragment peptide of Aβ42, was used. […] In the case of MS analysis, the MS analysis was performed after applying 20 μl of the reaction solution after the reaction for 6 days to HPLC and collecting an aliquot of the peak.
(§8) The present experiment examined activity against Aβ-Fs in Example 7.
The reaction solution V shown in FIG. 52 was incubated at 37° C. for a predetermined time, and autodigestion of ANA-YA4 (YRMI) and cleavage of Aβ11-29 were examined.
A reaction solution VI shown in FIG. 52 was incubated at 37° C. for a predetermined time, and cleavage of Aβ1-20 and Aβ11-29 by ANA-SA5 was examined.
(§9) As substrates, the same Aβ1-20 and Aβ11-29 as used in Example 7 were used.
The present example examined autodigestion and activity against Aβ-F of JAL 12-17 (YKGSGF) and JAL 12-16 (YKGSG). […] As a substrate, the same Aβ11-29 as used in Example 7 was used. The autodigestion was examined by causing the reaction in the same manner, except that the substrate was not added.

SOD1 2-12 = SOD1 2-12 (Homo sapiens, UniProt P00441); test: Hydrolysis activity against SOD1 2-12; assay type: biochemical
Text: (§2) In JAL 1-22 C19M and JAL 7-22 C19M, Cys residues contained in JAL form S—S bonds during a reaction, and this makes fragment analysis difficult. On this account, JAL 1-22 and JAL 7-22 were modified so as to substitute Cys residues by Met.

hMMP7 1-42 = target: T1, hMMP7 1-42 (Homo sapiens, UniProt P09237); test: Hydrolysis activity against hMMP7 1-42, optimal pH; assay type: biochemical; settings: 5 days
T1 sequence (P09237 18-42): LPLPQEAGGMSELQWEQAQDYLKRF
Text: The pH of the reaction solution was adjusted using an acetate buffer solution in the pH range from 3.5 to 6.0 and using a Tris-HCl buffer solution in the pH range from 6.5 to 8.0. In either case, the final concentration was set to 150 mmol/l.

hMMP7 26-50 = target: T2, hMMP7 26-50 (Homo sapiens, UniProt P09237); test: Hydrolysis activity against hMMP7 26-50 (HPLC, MS); assay type: biochemical
T2 construct: host or cells: synthetic peptide
T2 sequence (P09237 26-50 limits assumed): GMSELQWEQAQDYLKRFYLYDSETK
Method: (§3) The present example examined whether a synthetic peptide JAL has hydrolysis activity against synthetic peptides derived from the prodomain of human matrix metalloprotease 7 (hMMP7).
(§4) The following JAL was used as a hydrolytic peptide, and hMMP7 42-50 or hMMP7 26-50 was used as a substrate.
as §1
(§5) Then, in HPLC, aliquots of the peaks were collected (each 20 μl), and fragment identification was performed by mass spectrometry (ABI QSTAR Elite system) (referred to as “MS” hereinafter). MS was performed by a flow injection method under the following conditions.

hMMP7 42-50 = target: T3, hMMP7 42-50 (Homo sapiens, UniProt P09237); test: Hydrolysis activity against hMMP7 42-50 (HPLC, MS); assay type: biochemical
T3 construct: host or cells: synthetic peptide
Method: as §3, §4, §1, §5

SOD1 12-38 = SOD1 12-38 (Homo sapiens, UniProt P00441); test: Hydrolysis activity against SOD1 12-38; assay type: biochemical; settings: pH 6.5 or 7.5, 3 or 4 days
Sequence of SOD1 12-38 (P00441 12-38 limits assumed): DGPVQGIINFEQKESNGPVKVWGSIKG

SOD1 2-38 = SOD1 2-38 (Homo sapiens, UniProt P00441); test: Hydrolysis activity against SOD1 2-38; assay type: biochemical
Sequence of SOD1 2-38 (P00441 2-38 limits assumed): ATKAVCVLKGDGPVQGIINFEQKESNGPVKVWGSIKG
Method: As a control, physiological saline (0.9 w/v %) was used instead of the buffer solution. […] Also, it is considered that physiological saline is suitable for storage of JAL before use, for example.
Next, an experiment was conducted to consider an optimal pH for activity using JAL as the hydrolytic peptide and SOD1 2-38 as a substrate.
Metal ions to be added to a reaction solution were Zn^2+, Ca^2+, Co^2+, or combinations thereof. The concentrations of the metal ions in the respective reaction solutions were as follows: 10 mmol/l for Ca^2+; and 5 μmol/l for the other metal ions.
as §2

Aβ1-20 = Aβ1-20 (Homo sapiens, UniProt P05067); test: Hydrolysis activity against Aβ1-20
Sequence of Aβ1-20 (P05067 672-691 limits assumed): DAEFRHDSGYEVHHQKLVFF
Method: as §6, §7, §8, §9

SOD1 53-70 = SOD1 53-70 (Homo sapiens, UniProt P00441); test: Hydrolysis activity against SOD1 53-70; assay type: biochemical; settings: pH 6.5 or 7.5, 3 or 4 days
SOD1 115-154 = SOD1 115-154 (Homo sapiens, UniProt P00441); test: Hydrolysis activity against SOD1 115-154; assay type: biochemical; settings: pH 6.5 or 7.5, 3 or 4 days
Sequence of SOD1 115-154 (P00441 115-154): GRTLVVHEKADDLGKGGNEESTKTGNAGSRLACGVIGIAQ

[2] = JAL 0.2 mmol/l, substrate 0.05 mmol/l, Tris-HCl pH 6.5, 37° C., 14 days, HPLC
[3] = Example 5 (1), JAL 14-18 and mutants
[4] = reaction solution VI, reaction for 1 day
[5] = reaction solution VI, reaction for 5 days

FPEKPCKGSGYRCIRI [BTG1 7-22]
hydrolysis activity against PrP 175-189 (PrP 175-189): exhibited activity

AISSSMHSLYGLGLGS [Tob1 221-236]
autodigestion ([1]; Example 6, HSA added, 5 days): fragments suggesting autodigestion of Tob1 221-236 were observed | hydrolysis activity against Aβ11-29 (Aβ11-29; Example 6 (3)): exhibited activity

KYEGHWYPEKPYKGSGFRCIHI [JAL]
cleavage sites, fragment identification by MS (SOD1 2-12): a plurality of sites indicated with arrows were cleaved | hydrolysis activity against SOD1 2-12 (SOD1 2-12; pH 6.5 or 7.5, 3 or 4 days): has activity | hydrolysis activity against hMMP7 1-42 (hMMP7 1-42; pH 3.5 to 6.0, acetate buffer 150 mmol/l): exhibited activity | hydrolysis activity against hMMP7 1-42 (hMMP7 1-42; pH 6.5 to 8.0, Tris-HCl 150 mmol/l): the results obtained were the same as that obtained after a lapse of 0 days from the start of the reaction | autodigestion ([1]; Tris-HCl pH 6.5, 37° C., 14 days, with hMMP7 fragment): autodigestion of JAL occurred | cleavage of substrate, fragment identification by MS (hMMP7 26-50; 16 days): cleaved at a plurality of sites | hydrolysis activity against hMMP7 26-50 (hMMP7 26-50; [2]): has activity | cleavage of substrate, fragment identification by MS (hMMP7 42-50; 16 days): cleaved at a plurality of sites | hydrolysis activity against hMMP7 42-50 (hMMP7 42-50; [2]): has activity | hydrolysis activity against SOD1 12-38 (SOD1 12-38): has activity | cleavage sites, fragment identification by MS (SOD1 2-38): a plurality of sites indicated with arrows were cleaved | hydrolysis activity against SOD1 2-38 (SOD1 2-38; Tris buffer solution at various concentrations, 1 or 4 days): exhibited activity regardless of the concentration of the Tris buffer solution | hydrolysis activity against SOD1 2-38 (SOD1 2-38; assay buffer solution (50 mmol/l Tris-HCl pH 7.5, NaCl, Ca, Zn, Briji35, NaN3) vs Tris buffer pH 6.5, 0, 1, 3 days): cleavage by JAL was observed earlier | hydrolysis activity against SOD1 2-38 (SOD1 2-38; only Milli-Q water (0 mmol/l Tris)): did not exhibit activity | hydrolysis activity against SOD1 2-38 (SOD1 2-38; pH 6.5 or 7.5, 3 or 4 days): strong activity | hydrolysis activity against SOD1 2-38 (SOD1 2-38; pH 6.5 to 8.0 in increments of 0.5, 1 day): exhibited activity at all the pH values | hydrolysis activity against SOD1 2-38 (SOD1 2-38; physiological saline (0.9 w/v %) instead of buffer): did not exhibit activity | hydrolysis activity against SOD1 2-38 (SOD1 2-38; with or without Zn2+, Ca2+, Co2+, 1 day): exhibited activity regardless of the presence or absence of the metals | hydrolysis activity against Aβ1-20 (Aβ1-20; Example 3 (2), (6)): has activity | hydrolysis activity against Aβ1-20 (Aβ1-20; PBS (pH 7.4), 3 or 5 days): exhibited activity | hydrolysis activity against Aβ1-20 (Aβ1-20; phosphate buffer solution, 3 or 5 days): did not exhibit activity | hydrolysis activity against SOD1 53-70 (SOD1 53-70): strong activity | hydrolysis activity against SOD1 115-154 (SOD1 115-154): did not exhibit activity

YKGSGFRMI [JAL 12-20 C19M]
autodigestion in presence of protease inhibitor ([1]; AEBSF, with Aβ11-29, 1 day): inhibited by AEBSF | hydrolysis activity against Aβ11-29 (Aβ11-29; Example 3 (6)): exhibited activity | hydrolysis activity against Aβ11-29 (Aβ11-29; Example 4 (5)): strong activity

YKGSGFRMIHA
hydrolysis activity against Aβ11-29 (Aβ11-29; Example 3 (6)): exhibited activity

GSGYR
hydrolysis activity against Aβ1-20 (Aβ1-20; [3]): strong activity

APEKPYKGSGFRMIHA
hydrolysis activity against Aβ11-29 (Aβ11-29; Example 3 (6)): exhibited activity

YKGSGFR [JAL (Tob1) 12-18]
hydrolysis activity against Aβ1-20 (Aβ1-20; Example 3 (2), (6)): exhibited activity

GSGHR
hydrolysis activity against Aβ11-29 (Aβ11-29; [3]): strong activity

YPEKPLKGSGFRCVHI [Tob2 7-22]
hydrolysis activity against PrP 175-189 (PrP 175-189): exhibited activity | hydrolysis activity against PrP 175-189 (PrP 175-189; Cu2+ further added to HSA): exhibited activity

YRMI [ANA-SA4]
autodigestion ([1]; reaction solution V, 37° C.): digested itself | cleavage of Aβ1-20 (Aβ1-20; reaction solution V, 37° C.): degraded Aβ1-20 | Aβ1-20 peak remaining (Aβ1-20; [4]): 49.6% | Aβ1-20 peak (Aβ1-20; [5]): almost disappeared | cleavage of Aβ11-29 (Aβ11-29; reaction solution V, 37° C.): degraded Aβ11-29 | Aβ11-29 peak remaining (Aβ11-29; [4]): 72% | Aβ11-29 peak (Aβ11-29; [5]): almost disappeared

DSGFR
hydrolysis activity against Aβ1-20 (Aβ1-20; [3]): strong activity

GSGQR
hydrolysis activity against Aβ11-29 (Aβ11-29; [3]): strong activity

YPEKPSKGQAYRCIRV [BTG3 7-22]
hydrolysis activity against PrP 175-189 (PrP 175-189): exhibited activity | hydrolysis activity against PrP 175-189 (PrP 175-189; Cu2+ further added to HSA): exhibited activity
